# Laboratory results taken from US20260184814A1, “BROADLY NE[…] INFLUENZA NEURAMINIDASE” (priority 2022, published 2026).
# Legend:
# [1] = molecular target: human FcγRIIa (R131 allele) (human) (UniProt P12318); assay: MSD [cont'd]
# [2] = molecular target: human FcγRIIa (H131 allele) (human) (UniProt P12318); assay: MSD [cont'd]
# [3] = molecular target: human FcγRIIIa (V158 allele) (human) (UniProt P08637); assay: MSD [cont'd]
# [4] = molecular target: human FcγRIIb (human) (UniProt P31994); assay: MSD [cont'd]
# Chain of human FcγRIIb (human) (P31994 43-217 limits assumed): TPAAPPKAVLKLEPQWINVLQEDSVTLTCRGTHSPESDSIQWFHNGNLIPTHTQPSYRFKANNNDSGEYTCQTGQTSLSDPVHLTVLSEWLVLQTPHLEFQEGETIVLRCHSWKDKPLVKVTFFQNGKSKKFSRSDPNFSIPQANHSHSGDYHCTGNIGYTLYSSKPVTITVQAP
# [5] = molecular target: human FcγRIIIb (human) (UniProt O75015); assay: MSD [cont'd]
# Chain of human FcγRIIIb (human) (O75015 17-200 limits assumed): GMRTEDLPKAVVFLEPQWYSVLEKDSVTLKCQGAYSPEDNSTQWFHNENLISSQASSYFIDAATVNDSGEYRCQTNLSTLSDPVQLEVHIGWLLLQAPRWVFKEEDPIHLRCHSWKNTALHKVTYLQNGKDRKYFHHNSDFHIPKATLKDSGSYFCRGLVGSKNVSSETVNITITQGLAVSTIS
# [6] = molecular target: human FcRn (human) (UniProt P55899); assay: MSD [cont'd]
# Chain of human FcRn (human) (P55899 24-297 limits assumed, chain 1 of 2): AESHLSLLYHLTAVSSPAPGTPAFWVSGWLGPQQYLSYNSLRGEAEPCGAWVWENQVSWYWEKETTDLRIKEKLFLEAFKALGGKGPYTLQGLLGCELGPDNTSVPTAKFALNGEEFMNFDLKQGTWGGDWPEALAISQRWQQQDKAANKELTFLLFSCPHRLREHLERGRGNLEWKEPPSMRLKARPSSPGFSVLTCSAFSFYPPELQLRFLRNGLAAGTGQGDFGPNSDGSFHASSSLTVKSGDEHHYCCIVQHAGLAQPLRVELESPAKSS
# Chain of human FcRn (human) (chain, as listed by the source limits assumed, chain 2 of 2): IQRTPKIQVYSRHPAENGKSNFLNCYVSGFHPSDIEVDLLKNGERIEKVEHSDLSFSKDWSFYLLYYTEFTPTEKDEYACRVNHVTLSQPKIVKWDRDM
# [7] = molecular target: human FcγRIIIa (F158 allele) (human) (UniProt P08637); assay: MSD [cont'd]
# Chain of human FcγRIIIa (F158 allele) (human) (P08637 17-208 limits assumed): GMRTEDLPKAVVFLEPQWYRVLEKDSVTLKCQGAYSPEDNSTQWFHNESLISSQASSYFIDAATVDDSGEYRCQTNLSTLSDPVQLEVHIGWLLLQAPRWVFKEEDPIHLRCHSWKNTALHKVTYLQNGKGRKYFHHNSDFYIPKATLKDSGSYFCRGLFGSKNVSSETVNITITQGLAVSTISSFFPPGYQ
# [8] = molecular target: human FcγRIIIa (V158 allele) (human) (UniProt P08637)
# [9] = molecular target: human FcγRIIIa (F158 allele) (human) (UniProt P08637)
# [10] = molecular target: human FcγRIIa (R131 allele) (human) (UniProt P12318); assay: MSD
# [11] = molecular target: human FcγRIIa (H131 allele) (human) (UniProt P12318); assay: MSD
# [12] = molecular target: human FcγRIIIa (V158 allele) (human) (UniProt P08637); assay: MSD
# [13] = molecular target: human FcγRIIb (human) (UniProt P31994); assay: MSD
# [14] = molecular target: human FcγRIIIb (human) (UniProt O75015); assay: MSD
# [15] = molecular target: human FcγRIIIa (F158 allele) (human) (UniProt P08637); assay: MSD
# [16] = molecular target: human FcγRIIIb (human) (UniProt O75015); assay: MSD electrochemiluminescence binding assay; column IIIB
# [17] = molecular target: human FcγRIIb (human) (UniProt P31994); assay: MSD electrochemiluminescence binding assay; column IIB
# [18] = molecular target: human FcγRIIa (H131 allele) (human) (UniProt P12318); assay: MSD electrochemiluminescence binding assay; column IIA_H
# [19] = molecular target: human FcγRIIa (R131 allele) (human) (UniProt P12318); assay: MSD electrochemiluminescence binding assay; column IIA_R
# [20] = molecular target: human FcRn (human) (UniProt P55899); assay: MSD electrochemiluminescence binding assay; column FcRn
# [21] = molecular target: human FcγRIIIa (F158 allele) (human) (UniProt P08637); assay: MSD electrochemiluminescence binding assay; column IIIA_F
# [22] = molecular target: human FcγRIIIa (V158 allele) (human) (UniProt P08637); assay: MSD electrochemiluminescence binding assay; column IIIA_V
# [23] = molecular target: human FcγRIIa (H131 allele) (human) (UniProt P12318)
# [24] = molecular target: human FcγRIIIa (V158 allele) (human) (UniProt P08637); remark: listed apart in the source
# [25] = molecular target: human FcγRIIb (human) (UniProt P31994)
# [26] = molecular target: human FcγRIIIa (F158 allele) (human) (UniProt P08637); remark: listed apart in the source
# [27] = molecular target: human C1q (human) (UniProt P02745); assay: MSD [cont'd]
# Chain of human C1q (human) (P02745 23-245 limits assumed, chain 1 of 3): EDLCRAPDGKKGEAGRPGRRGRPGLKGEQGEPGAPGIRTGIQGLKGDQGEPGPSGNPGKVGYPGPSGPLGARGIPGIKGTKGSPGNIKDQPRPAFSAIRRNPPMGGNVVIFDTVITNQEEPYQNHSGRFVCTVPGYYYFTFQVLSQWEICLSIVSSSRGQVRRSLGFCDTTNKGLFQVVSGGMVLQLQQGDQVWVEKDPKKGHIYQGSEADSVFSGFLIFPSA
# Chain of human C1q (human) (P02746 28-253 limits assumed, chain 2 of 3, further chain): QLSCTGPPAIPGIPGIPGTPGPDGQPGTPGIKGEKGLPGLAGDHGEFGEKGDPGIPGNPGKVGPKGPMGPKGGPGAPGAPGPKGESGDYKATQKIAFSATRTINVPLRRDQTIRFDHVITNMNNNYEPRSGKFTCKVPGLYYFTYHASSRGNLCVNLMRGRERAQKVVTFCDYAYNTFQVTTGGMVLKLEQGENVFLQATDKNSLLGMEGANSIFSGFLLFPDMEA
# Chain of human C1q (human) (P02747 29-245 limits assumed, chain 3 of 3, further chain): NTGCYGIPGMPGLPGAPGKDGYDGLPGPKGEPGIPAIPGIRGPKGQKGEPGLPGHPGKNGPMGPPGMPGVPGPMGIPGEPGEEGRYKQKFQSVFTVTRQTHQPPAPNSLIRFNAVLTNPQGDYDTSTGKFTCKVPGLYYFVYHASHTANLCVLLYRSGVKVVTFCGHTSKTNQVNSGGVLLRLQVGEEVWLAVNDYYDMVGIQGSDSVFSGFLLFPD
# Chain of human FcγRIIIa (V158 allele) (human) (P08637 17-208 F176V limits assumed): as the sequence (P08637 17-208 limits assumed) above, with F160V counted along it
# Chain of human FcγRIIa (R131 allele) (human) (P12318 34-218 H167R limits assumed): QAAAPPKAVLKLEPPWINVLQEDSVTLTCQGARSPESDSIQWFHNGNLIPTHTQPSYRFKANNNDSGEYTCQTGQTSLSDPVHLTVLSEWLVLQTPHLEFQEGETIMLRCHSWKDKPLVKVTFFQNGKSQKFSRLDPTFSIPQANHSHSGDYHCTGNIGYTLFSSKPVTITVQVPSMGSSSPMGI
# Chain of human FcγRIIa (H131 allele) (human) (P12318 34-218 limits assumed): as the sequence (P12318 34-218 H167R limits assumed) above, with R134H counted along it
Substance,fold to wt-fucose [1] [fold],fold to wt-fucose [2] [fold],fold to wt-fucose [3] [fold],fold to wt-fucose [4] [fold],fold to wt-fucose [5] [fold],fold to wt-fucose [6] [fold],fold to wt-fucose [7] [fold],"FcγR reporter signaling, fold to wt-fucose [cont'd] [8] [fold]","FcγR reporter signaling, fold to wt-fucose [cont'd] [9] [fold]",fold-change in binding vs wild-type IgG1 [16],fold-change in binding vs wild-type IgG1 [17],fold-change in binding vs wild-type IgG1 [18],fold-change in binding vs wild-type IgG1 [19],fold-change in binding vs wild-type IgG1 [20],fold-change in binding vs wild-type IgG1 [21],fold-change in binding vs wild-type IgG1 [22],further results
G236A_R292P_I377N-afuc (antibody),1.35,5.54,7.14,0.6,1.2,0.8,14.8,3.94,9.68,–,–,–,–,–,–,–,fold-change (reference not given) [10]: 1.4 fold; fold-change (reference not given) [11]: 5.5 fold; fold-change (reference not given) [12]: 7.1 fold; fold-change (reference not given) [13]: 0.6 fold; fold-change (reference not given) [14]: 1.2 fold; fold-change (reference not given) [15]: 14.8 fold
G236A_P230A_Q295E-afuc (antibody),6.04,8.94,10.8,0.67,1.8,1.02,26.7,5.54,10.9,–,–,–,–,–,–,–,–
G236A_K334A_Q295E-afuc (antibody),3.75,5.32,7.93,0.55,1.62,1.11,27.5,5.54,12.7,–,–,–,–,–,–,–,–
L234D_V264R_K326E (antibody),–,–,–,–,–,–,–,–,–,0.6,0.5,0.14,0.25,0.83,0.27,0.05,–
G236A_A330L_I332E_M428L_N434S-afuc (antibody),1.2,2.56,34.5,0.41,11.8,7.37,275,6.2,16.4,–,–,–,–,–,–,–,fold-change (reference not given) [10]: 1.1 fold; fold-change (reference not given) [11]: 2.3 fold; fold-change (reference not given) [12]: 30.2 fold; fold-change (reference not given) [13]: 0.4 fold; fold-change (reference not given) [14]: 12.3 fold; fold-change (reference not given) [15]: 256 fold
P245A_Q295E_S298N (antibody),–,–,–,–,–,–,–,–,–,0.89,0.31,0.28,0.3,0.85,0.34,0.1,–
G236A_E272Y_S298N (antibody),–,–,–,–,–,–,–,–,–,0.62,0.19,0.63,0.38,0.98,0.31,0.06,–
G236S_G420V_G446E_L309T-afuc (antibody),1.7,3.62,1.99,0.44,0.86,0.77,3.35,4,4.41,–,–,–,–,–,–,–,–
L234D_G236D_K326E (antibody),–,–,–,–,–,–,–,–,–,0.6,0.28,0.14,0.3,0.83,0.35,0.05,–
G236A_A330L_I332E-afuc (antibody),1.65,3.45,32,0.67,14.1,1.09,259,5.27,14.8,–,–,–,–,–,–,–,fold-change (reference not given) [10]: 1.6 fold; fold-change (reference not given) [11]: 3.1 fold; fold-change (reference not given) [12]: 28 fold; fold-change (reference not given) [13]: 0.6 fold; fold-change (reference not given) [14]: 14.8 fold; fold-change (reference not given) [15]: 242 fold
G236A_Q295E_S298N (antibody),–,–,–,–,–,–,–,–,–,0.76,0.23,1.82,0.65,0.93,0.35,0.07,–
L328V_Q295E_S298N (antibody),–,–,–,–,–,–,–,–,–,0.79,0.32,0.26,0.33,1.02,0.28,0.08,–
IgG1 antibody with Fc variant G236A_P230A_Q295E,–,–,–,–,–,–,–,–,–,0.72,0.48,7.59,4.57,0.93,0.48,0.31,"FcγR reporter signaling, fold-change vs wt [cont'd] [23]: 2.29 fold; FcγR reporter signaling, fold-change vs wt [cont'd] [24]: 0.06 fold; FcγR reporter signaling, fold-change vs wt [cont'd] [25]: 0.56 fold; FcγR reporter signaling, fold-change vs wt [cont'd] [26]: 0.02 fold; fold-change vs wt [27]: 0.3 fold; fold-change vs wt [6]: 0.93 fold; fold-change vs wt [10]: 4.57 fold; fold-change vs wt [11]: 7.67 fold; fold-change vs wt [12]: 0.31 fold; fold-change vs wt [13]: 0.54 fold; fold-change vs wt [14]: 0.72 fold; fold-change vs wt [15]: 0.48 fold"
G236A_R292P-afuc (antibody),1.04,3.05,3.37,0.51,1.15,0.73,5.83,2.18,3.34,–,–,–,–,–,–,–,–
IgG1 antibody with Fc variant G236A_K334A_Q295E,–,–,–,–,–,–,–,–,–,0.72,0.4,5.01,2.88,1.02,0.74,0.27,"FcγR reporter signaling, fold-change vs wt [cont'd] [23]: 2.13 fold; FcγR reporter signaling, fold-change vs wt [cont'd] [24]: 0.36 fold; FcγR reporter signaling, fold-change vs wt [cont'd] [25]: 0.8 fold; FcγR reporter signaling, fold-change vs wt [cont'd] [26]: 0.23 fold; fold-change vs wt [27]: 0.9 fold; fold-change vs wt [6]: 1.02 fold; fold-change vs wt [10]: 2.92 fold; fold-change vs wt [11]: 4.96 fold; fold-change vs wt [12]: 0.27 fold; fold-change vs wt [13]: 0.67 fold; fold-change vs wt [14]: 0.72 fold; fold-change vs wt [15]: 0.74 fold"
G236S_R292P_Y300L-afuc (antibody),1.5,8.13,3.17,0.72,1.04,0.8,5.47,2.87,6.54,–,–,–,–,–,–,–,–
K334A_Q295E_S298N (antibody),–,–,–,–,–,–,–,–,–,0.93,0.47,0.22,0.28,0.91,0.37,0.09,–
